Results taken from patent US20250289849A1, “PEPTIDE TO TREAT ALPHA-SYNUCLEIN AMYLOID BASED DISORDERS” (COUNCIL OF SCIENTIFIC & INDUSTRIAL RESEARCH, priority 2022, published 2025).
Where no end group is shown, it is not given here.

Biological target: T1, human wild-type α-synuclein (Homo sapiens, UniProt P37840)
T1 construct: made in house; host or cells: E. coli Rosetta(DE3), pT7-7 based expression vector
Assay: In vitro fibrillation assay (Thioflavin T fluorescence)
Format: biochemical
Details: for inhibition of α-synuclein fibrillation (reduction in ThT fluorescence, in words): FIG. 3, α-synuclein 400 μM, equimolar peptide, 37° C., observed upto 6 hr; for increase in α-synuclein fibrillation (fluorescence intensity), compared to penetratin: FIG. 4A, zoomed Y-axis of FIG. 3 data; for normalized ratio of ThT fluorescence amplitude at 5 h versus 0 h, compared with SEQ.ID.-4: FIG. 4B
Protocol: FIG. 1. […] The α-synuclein fibrillation was monitored using ThioflavinT (ThT), a dye that specifically binds to amyloids. The binding of ThT results in increase of its fluorescence intensity at 482 nm. Purified α-synuclein (400 μM) was incubated at 37° C. with shaking in the presence and absence of equimolar concentration of indicated peptides. Amyloid formation was determined by monitoring ThT fluorescence at different time intervals.
FIG. 3. […] The α-synuclein fibrillation was monitored using ThioflavinT (ThT) dye, which specifically binds to amyloids, with its subsequent increase in fluorescence intensity recorded at 482 nm. The purified α-synuclein (400 μM) was incubated at 37° C. with shaking, in the presence and absence of equimolar concentration of indicated peptides. Amyloid formation was determined by monitoring ThT fluorescence at different time intervals.
FIG. 4A. The inhibition of α-synuclein fibrillation in the presence of different peptides as indicated by SEQ.IDs. The data is same as in FIG. 3A except that only the enhanced (zoomed) Y-axis for α-synuclein fibrillation in the presence of peptides is shown for clarity.
FIG. 4B. The ratio of the amplitude at 5 h versus 0 h for each of the curve was calculated and normalized.
Thioflavin T (ThT) (4 mM) was added to 400 μM of purified α-synuclein with and without Cell penetrating peptides at equimolar concentration in a 96 microwell plate. The plate was incubated at 37° C. with a shaking speed of 900 rpm in linear mode in a multimode plate reader (TECAN infinite M200 PRO). Fluorescence kinetics was measured after every 15 minutes with emission wavelength of 482 nm upon excitation at 442 nm. Each experiment was repeated at least three times.

Row | Substance | inhibition of α-synuclein fibrillation (reduction in ThT fluorescence, in words) | increase in α-synuclein fibrillation (fluorescence intensity), compared to penetratin | normalized ratio of ThT fluorescence amplitude at 5 h versus 0 h, compared with SEQ.ID.-4
1 | SEQ.ID.-7: shorter truncated version of SEQ.ID.-4, further cyclized (CKIWFQNRRMKC; not fully specified (bridges); also: cyclized, mode not given here) | inhibits α-synuclein fibrillation | did not allow increase in α-synuclein fibrillation | significantly better inhibitor of fibrillation than of SEQ.ID.-4
2 | SEQ.ID.-6: Cyclic derivative synthesized by introducing Cys residue at N-terminal and C-terminal of SEQ.ID.-4 sequence (CRQIKIWFQNRRMKWKKC; not fully specified (bridges); cysteine pairing not given here) | inhibits α-synuclein fibrillation |  | 
3 | SEQ.ID.-8: shorter and cyclized derivative of SEQ.ID.-4 with an additional mutation (CKIWFANRRMKC; not fully specified (bridges); also: cyclized, mode not given here) | inhibits α-synuclein fibrillation | did not allow increase in α-synuclein fibrillation | significantly better inhibitor of fibrillation than of SEQ.ID.-4
